Substrate: O=[N+]([O-])c1ccc(O[C@@H]2O[C@H](CO)[C@@H](O)[C@H](O)[C@H]2O)cc1
Experiment: purified protein
Conditions: pH 6.0 sodium phosphate 50 mM, 37 °C, 0.1-5 mM substrate

B1: BglF3 (Flavobacterium johnsoniae UW101) (protein)
chain: KNKMIYLSAALVFAFFTSCKNETQTSASNSSQTEEYVGKEISTDHDAEIDKLISQMTLEEKIGMLHGNSMFANAGVKRLGIPELKMADGPLGVREEISRDNWAPAGWTNDFATYYPAGGALAATWNAEMAHTFGTSLGEELRARDKDMLLSPAINMVRTPLGGRTYEYMSEDPFLNKKIAVPLVVGLQEKDVMACVKHYAANNQETNRDFVDVQIDERTLREIYLPAFEATVKEAKAYSIMGAYNKFRGEYLCENDYMLNKILRDEWGFKGVVVSDWAAVHSTAKSLKNGLDIEMGTPKPFNEFFLADKLIAAVKSGEVSEKEIDLHVKRILRVLFQVKAMGGGERAKGSIATEAHYQDAYKIAAEAIILLKNENNALPLKLDGVKSIAVIGNNATKKNALGGFGAGVKTKREVTPLEGLKNRLPSSVKINYAEGYLEKYEEKNKGNLGNITSTGPVTIDKLDPAKVQEAVEAAKKSDVAIIFAGSNRDYETEASDRRDLHLPFGQEELIKKVIEANPKTIVVMIAGAPFDLNEVSQKSSALVWSWFNGSEGGNALADVILGKVNPSGKLPWTMPKQLKDSPAHATNSFPGDKAVNYAEGILIGYRWFDTKNVAPLYPFGYGLSYTTFALDNAKTDKDSYAQNDVIEVTVDVKNTGKVDGKEVVQLYTSKSDSKITRAAQELKGFKKADVKAGGSEKITIKVPVKELAYYDVAAKKWTVEPGKYTIKLGTSSRDIKKEINFTIK
Km: 910 ± 20 µM

— article PMC3659600
